Laboratory results reported in the supplement of paper PMC9112550, “Optimization of the antimicrobial peptide Bac7 by deep mutational scanning” (BMC Biology, 2022).
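Also: peptides expressed intracellularly from a pBAD plasmid library in pooled LB shake-flask culture, induced with 0.3% L-arabinose, DNA abundance read by NGS, three biological replicates, DESeq2 with apeglm shrinkage.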

Each sequence was assayed on Escherichia coli TOP10 (assay: shrunken log2 fold change of peptide-encoding DNA abundance (4.5 h post-induction vs induction); higher = less antimicrobial activity (less host growth inhibition)). Details: time post-induction: 4.5 h; library: site-saturation at positions 5, 18, 19, 20.
RRIRCRPPRLPRPRPRPRNVPRP was tested, and the “shrunken log2 fold change” value was -0.156. In the case of RRIRARPPRLPRPRPRPYWYPRP, the “shrunken log2 fold change” value was -0.763. RRIRIRPPRLPRPRPRPTEGPRP was tested, and the “shrunken log2 fold change” value was 0.00534. RRIRWRPPRLPRPRPRPRIIPRP was tested, and the “shrunken log2 fold change” value was 0.136. In the case of RRIRERPPRLPRPRPRPRSCPRP, the “shrunken log2 fold change” value was 0.0568. In the case of RRIRIRPPRLPRPRPRPIRAPRP, the “shrunken log2 fold change” value was -0.634. In the case of RRIRPRPPRLPRPRPRPAHEPRP, the “shrunken log2 fold change” value was 0.356. With RRIRERPPRLPRPRPRPNQLPRP the “shrunken log2 fold change” value was -0.0673. With RRIRDRPPRLPRPRPRPMWRPRP the “shrunken log2 fold change” value was 0.309. In the case of RRIRQRPPRLPRPRPRPKWRPRP, the “shrunken log2 fold change” value was 0.0839. For RRIRARPPRLPRPRPRPMFMPRP, the “shrunken log2 fold change” value was 0.749. For RRIRHRPPRLPRPRPRPLHKPRP, the “shrunken log2 fold change” value was -0.294. For RRIRLRPPRLPRPRPRPRGWPRP, the “shrunken log2 fold change” value was 0.722. In the case of RRIRSRPPRLPRPRPRPENLPRP, the “shrunken log2 fold change” value was 0.026. In the case of RRIRWRPPRLPRPRPRPITRPRP, the “shrunken log2 fold change” value was -0.0637. RRIRTRPPRLPRPRPRPTWQPRP was tested, and the “shrunken log2 fold change” value was 0.149. RRIRFRPPRLPRPRPRPVQWPRP was tested, and the “shrunken log2 fold change” value was 0.184. With RRIRYRPPRLPRPRPRPLDNPRP the “shrunken log2 fold change” value was -0.0671. For RRIRYRPPRLPRPRPRPTFRPRP, the “shrunken log2 fold change” value was -0.0396. RRIRHRPPRLPRPRPRPPPLPRP was tested, and the “shrunken log2 fold change” value was 0.651. For RRIRVRPPRLPRPRPRPLFEPRP, the “shrunken log2 fold change” value was 0.109. For RRIRERPPRLPRPRPRPAKQPRP, the “shrunken log2 fold change” value was 0.00996. With RRIRLRPPRLPRPRPRPCPCPRP the “shrunken log2 fold change” value was -0.0536. RRIRPRPPRLPRPRPRPRTMPRP was tested, and the “shrunken log2 fold change” value was 0.276. For RRIRDRPPRLPRPRPRPPKYPRP, the “shrunken log2 fold change” value was -0.47. With RRIRIRPPRLPRPRPRPHNKPRP the “shrunken log2 fold change” value was -0.976. With RRIRKRPPRLPRPRPRPGWYPRP the “shrunken log2 fold change” value was -0.0717. With RRIRYRPPRLPRPRPRPPDKPRP the “shrunken log2 fold change” value was 0.194. For RRIRIRPPRLPRPRPRPTFEPRP, the “shrunken log2 fold change” value was 0.168. In the case of RRIRVRPPRLPRPRPRPDLPPRP, the “shrunken log2 fold change” value was -0.377. For RRIRQRPPRLPRPRPRPYGLPRP, the “shrunken log2 fold change” value was -0.048. RRIRGRPPRLPRPRPRPLSVPRP was tested, and the “shrunken log2 fold change” value was 0.383. RRIRTRPPRLPRPRPRPEVAPRP was tested, and the “shrunken log2 fold change” value was 0.0197. RRIRCRPPRLPRPRPRPDVEPRP was tested, and the “shrunken log2 fold change” value was -0.421. With RRIRERPPRLPRPRPRPFYPPRP the “shrunken log2 fold change” value was -0.834. RRIRERPPRLPRPRPRPHSQPRP was tested, and the “shrunken log2 fold change” value was 0.061. In the case of RRIRARPPRLPRPRPRPPQGPRP, the “shrunken log2 fold change” value was 0.689. For RRIRKRPPRLPRPRPRPNRSPRP, the “shrunken log2 fold change” value was -0.0169. In the case of RRIRHRPPRLPRPRPRPKCCPRP, the “shrunken log2 fold change” value was -0.0444. For RRIRTRPPRLPRPRPRPHFQPRP, the “shrunken log2 fold change” value was -0.294. In the case of RRIRFRPPRLPRPRPRPKHGPRP, the “shrunken log2 fold change” value was 0.405. With RRIRNRPPRLPRPRPRPYTKPRP the “shrunken log2 fold change” value was -0.0607. In the case of RRIRDRPPRLPRPRPRPKMAPRP, the “shrunken log2 fold change” value was 0.38. In the case of RRIRRRPPRLPRPRPRPQLKPRP, the “shrunken log2 fold change” value was 0.0988. RRIRIRPPRLPRPRPRPRNTPRP was tested, and the “shrunken log2 fold change” value was -0.208. RRIRGRPPRLPRPRPRPMRWPRP was tested, and the “shrunken log2 fold change” value was 0.844. RRIRNRPPRLPRPRPRPAVHPRP was tested, and the “shrunken log2 fold change” value was -0.0211. In the case of RRIRKRPPRLPRPRPRPMDWPRP, the “shrunken log2 fold change” value was 0.256. For RRIRSRPPRLPRPRPRPQWCPRP, the “shrunken log2 fold change” value was 0.111. With RRIRWRPPRLPRPRPRPEDGPRP the “shrunken log2 fold change” value was 0.173. In the case of RRIRLRPPRLPRPRPRPHLWPRP, the “shrunken log2 fold change” value was 0.0492. With RRIRRRPPRLPRPRPRPFENPRP the “shrunken log2 fold change” value was 0.0967. For RRIRSRPPRLPRPRPRPNCDPRP, the “shrunken log2 fold change” value was -0.00648. In the case of RRIRGRPPRLPRPRPRPHCIPRP, the “shrunken log2 fold change” value was -0.0261. For RRIRFRPPRLPRPRPRPTMDPRP, the “shrunken log2 fold change” value was -0.246. RRIRQRPPRLPRPRPRPQAKPRP was tested, and the “shrunken log2 fold change” value was 0.0346. With RRIRKRPPRLPRPRPRPHYDPRP the “shrunken log2 fold change” value was 0.0324. RRIRNRPPRLPRPRPRPLTWPRP was tested, and the “shrunken log2 fold change” value was -0.182. In the case of RRIRYRPPRLPRPRPRPRNVPRP, the “shrunken log2 fold change” value was -0.324. With RRIRDRPPRLPRPRPRPRGSPRP the “shrunken log2 fold change” value was 0.255. In the case of RRIRLRPPRLPRPRPRPSGTPRP, the “shrunken log2 fold change” value was -0.114. RRIRSRPPRLPRPRPRPQDDPRP was tested, and the “shrunken log2 fold change” value was -0.351. In the case of RRIRERPPRLPRPRPRPSDLPRP, the “shrunken log2 fold change” value was -0.151. With RRIRNRPPRLPRPRPRPRKVPRP the “shrunken log2 fold change” value was 0.445. RRIRYRPPRLPRPRPRPHVTPRP was tested, and the “shrunken log2 fold change” value was -0.147. In the case of RRIRQRPPRLPRPRPRPGLTPRP, the “shrunken log2 fold change” value was -0.483. For RRIRERPPRLPRPRPRPVAMPRP, the “shrunken log2 fold change” value was -0.00351. For RRIRSRPPRLPRPRPRPYDDPRP, the “shrunken log2 fold change” value was 0.0208. With RRIRTRPPRLPRPRPRPNQTPRP the “shrunken log2 fold change” value was -0.155. With RRIRLRPPRLPRPRPRPGQNPRP the “shrunken log2 fold change” value was -0.18. With RRIRARPPRLPRPRPRPYPMPRP the “shrunken log2 fold change” value was 0.019. In the case of RRIRLRPPRLPRPRPRPHGCPRP, the “shrunken log2 fold change” value was -0.0225. RRIRQRPPRLPRPRPRPQCFPRP was tested, and the “shrunken log2 fold change” value was -1.14. With RRIRMRPPRLPRPRPRPLVQPRP the “shrunken log2 fold change” value was 0.199. With RRIRDRPPRLPRPRPRPIQDPRP the “shrunken log2 fold change” value was -0.0113.
